# Experimental data: patent publication US20200223915A1 (OSAKA UNIVERSITY, published 2020)
# T1: wild-type human Claudin 2 protein (human, UniProt P57739 1-230)
# T1 construct: Expressed on cells by retrovirus; Wording leaves open whether the entry is the protein or the DNA; also called hCLDN2
# T1 sequence: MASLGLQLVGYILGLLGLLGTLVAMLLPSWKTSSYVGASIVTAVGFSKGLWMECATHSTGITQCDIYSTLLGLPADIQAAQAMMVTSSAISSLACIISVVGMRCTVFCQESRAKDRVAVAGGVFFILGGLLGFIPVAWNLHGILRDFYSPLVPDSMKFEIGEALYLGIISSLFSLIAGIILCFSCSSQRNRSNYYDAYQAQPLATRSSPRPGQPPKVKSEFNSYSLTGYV
# T2: wild-type mouse Claudin 4 protein (mouse, UniProt O35054 1-210)
# T2 construct: Expressed on cells by retrovirus; Wording leaves open whether the entry is the protein or the DNA; also called mCLDN4
# T2 sequence: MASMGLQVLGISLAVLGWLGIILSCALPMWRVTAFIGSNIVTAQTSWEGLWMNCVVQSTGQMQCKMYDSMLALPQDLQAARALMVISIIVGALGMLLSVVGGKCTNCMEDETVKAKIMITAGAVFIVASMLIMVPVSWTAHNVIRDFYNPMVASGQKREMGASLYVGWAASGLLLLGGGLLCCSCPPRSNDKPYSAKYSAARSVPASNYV
# T3: wild-type mouse Claudin 5 protein (mouse, UniProt O54942 1-218)
# T3 construct: also called mCLDN5
# T3 sequence: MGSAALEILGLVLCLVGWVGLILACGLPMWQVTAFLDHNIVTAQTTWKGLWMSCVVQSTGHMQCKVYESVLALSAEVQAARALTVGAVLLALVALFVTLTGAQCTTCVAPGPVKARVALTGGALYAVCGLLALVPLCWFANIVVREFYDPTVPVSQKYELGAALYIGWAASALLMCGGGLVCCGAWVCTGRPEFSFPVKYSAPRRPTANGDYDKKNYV
# T4: wild-type rat Claudin 5 protein (rat, UniProt Q9JKD6 1-218)
# T4 sequence: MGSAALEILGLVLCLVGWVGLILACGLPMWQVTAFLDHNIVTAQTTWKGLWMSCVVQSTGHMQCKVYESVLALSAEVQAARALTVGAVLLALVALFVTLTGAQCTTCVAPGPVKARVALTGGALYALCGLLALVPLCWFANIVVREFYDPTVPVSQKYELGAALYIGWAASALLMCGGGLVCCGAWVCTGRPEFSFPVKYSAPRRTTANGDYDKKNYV
# T5: wild-type human Claudin 5 protein (human, UniProt O00501 1-218)
# T5 construct: also called hCLDN5; CLDN 5
# T5 sequence: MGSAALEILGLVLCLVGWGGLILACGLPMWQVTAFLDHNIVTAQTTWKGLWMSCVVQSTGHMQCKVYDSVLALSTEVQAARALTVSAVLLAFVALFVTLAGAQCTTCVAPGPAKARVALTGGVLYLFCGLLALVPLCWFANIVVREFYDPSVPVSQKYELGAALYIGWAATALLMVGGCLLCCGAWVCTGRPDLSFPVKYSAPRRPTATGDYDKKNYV
# Experiments:
# [1] = target: T1, wild-type human Claudin 2 protein; assay: FACS on Claudin-expressing cells
# Description: (§1) The cells were washed three times with 0.2% BSA-TBS, and then mixed with 100 μL of a secondary antibody solution (FITC conjugated goat anti-mouse IgG+IgM in 1% BSA-PBS (1:400)), followed by a reaction at 4° C. for 1 hour. The cells were washed with 0.2% BSA-TBS, and FACS analysis (FACS caliber, BD Bioscience) was performed.
# [2] = target: T2, wild-type mouse Claudin 4 protein; assay: FACS on Claudin-expressing cells
# Description: as §1
# [3] = target: T3, wild-type mouse Claudin 5 protein; assay: FACS on Claudin-expressing cells
# Description: as §1
# [4] = target: T4, wild-type rat Claudin 5 protein; assay: FACS on Claudin 5-expressing cells (species comparison)
# Description: as §1
# FIG. 5 illustrates histograms with the horizontal axis representing the fluorescence signal, and the vertical axis representing the cell count. FIG. 6 illustrates a comparison of the amino acid. sequences of Claudin 5 protein of different species.
# [5] = target: T5, wild-type human Claudin 5 protein; assay: FACS on human Claudin 5-expressing HT-1080 cells; 50% saturation of the MFI binding curve
# Description: as §1
binding result [1],binding result [2],binding result [3],binding result [4],Kd [5] [nM],Binder
no binding (tested: 10 µg/mL),no binding (tested: 10 µg/mL),no binding (tested: 10 µg/mL),no binding (tested: 10 µg/mL),7.3,"antibody 2B12 (antibody, IgG2a, V domains shown, also called antibody A) VH: QVQLQQSGAELARPGASVKLSCKASGYTFTRFGMSWVKQRTGQGLEWIGEIYPGSGDTYYSENFKGKATLTADKSSGTAYMELRSLTSEDSAVYFCARWGIYYGNPYAMDYWGQGTSVTVSS VL: DIVMTQAAPSVPVTPGESVSISCRSSKSLLHSNGNTYLYWFLQRPGQSPQLLIYRMSNLASGVPDRFSGSGSGTAFTLRISRVEAEDVGVYYCLQHLEYPFTFGSGTKLEIKR"
no binding (tested: 10 µg/mL),no binding (tested: 10 µg/mL),no binding (tested: 10 µg/mL),no binding (tested: 10 µg/mL),6.9,"antibody 2B1 (antibody, IgG2a, V domains shown, also called antibody B) VH: QVQLQQPGAELVKPGASVKLSCKASGYTFTTFWIHWVKQRPGRGLEWIGRIAPYSGGTTYNEKFKSKATLTVDRPSTTAYMQLISLTSEDSAVYYCARWDFTYGSNLDYWGQGTTLTVSS VL: DIVMTQSQKFMSTSVGDRVSIPCKASQNVRTAVAWYQQKPGQSPKALIYLASNRHTGVPDRFTGSGSGTDFTLTISNVQSEDLADYFCLGHWDYPYTFGGGTKLEIKR"
